Reference: patent US20220041721A1 (WUHAN YZY BIOPHARMA, published 2022)
Numbering of substitutions follows the chain as printed. Numbers in names are those of the source.

B1: IC-6 (bispecific antibody, human IgG1, kappa)
scFv: EVQLVESGGGLVQPGGSLRLSCAASGFTFSTYAMNWVRQAPGKGLEWVARIRSKYNNYATYYADSVKDRFTISRDDSKNTLYLQMNSLRAEDTAVYYCARHGNFGNSYVSWFAYWGQGTMVTVSSGGGGSGGGGSGGGGSQAVVTQEPSLTVSPGGTVTLTCGSSTGAVTTSNYANWVQQKPGQAPRGLIGGTNKRAPGVPARFSGSLLGGKAALTLSGAQPEDEAEYYCALWYSNLWVFGGGTKLEIKGGGGSDKTHTCPPCPAPEFEGGPSVFLFPPKPKDTLMISRTPEVTCVVVDVSHEDPEVKFNWYVDGVEVHNAKTKPREEQYNSTYRVVSVLTVLHQDWLNGKEYKCKVSNKALPASIEKTISKAKGQPREPQVCTLPPSRDELTKNQVSLSCAVKGFYPSDIAVEWESNGQPENNYKTTPPVLDSDGSFFLVSKLTVDKSRWQQGNVFSCSVMHEALHNHYTQKSLSLSPGK
heavy: EVKLDETGGGLVQPGRPMKLSCVASGFTFSDYWMNWVRQSPEKGLEWVAQIRNKPYNYETYYSDSVKGRFTISRDDSKSSVYLQMNNLRVEDMGIYYCTGSYYGMDYWGQGTSVTVSSASTKGPSVFPLAPSSKSTSGGTAALGCLVKDYFPEPVTVSWNSGALTSGVHTFPAVLQSSGLYSLSSVVTVPSSSLGTQTYICNVNHKPSNTKVDKKVEPKSCDKTHTCPPCPAPEFEGGPSVFLFPPKPKDTLMISRTPEVTCVVVDVSHEDPEVKFNWYVDGVEVHNAKTKPREEQYNSTYRVVSVLTVLHQDWLNGKEYKCKVSNKALPASIEKTISKAKGQPREPQVYTLPPCRDELTKNQVSLWCLVKGFYPSDIAVEWESNGQPENNYKTTPPVLDSDGSFFLYSKLTVDKSRWQQGNVFSCSVMHEALHNHYTQKSLSLSPGK
light: DVVMTQTPLSLPVSLGDQASISCRSSQSLVHSNGNTYLRWYLQKPGQSPKVLIYKVSNRFSGVPDRFSGSGSGTDFTLKISRVEAEDLGVYFCSQSTHVPWTFGGGTKLEIKRTVAAPSVFIFPPSDEQLKSGTASVVCLLNNFYPREAKVQWKVDNALQSGNSQESVTEQDSKDSTYSLSSTLTLSKADYEKHKVYACEVTHQGLSSPVTKSFNRGEC
notes: Comparative: 4420 Fab arm and anti-CD3 scFv (CD3 antibody 1 VH, CD3 antibody 2 VL)-Fc fusion peptide
B2: IC-4 (bispecific antibody, human IgG1, kappa)
scFv: B1 scFv with G163R, V200T, A220V, E247T, I248V, K249L
heavy: B1 heavy
light: B1 light
notes: Comparative: 4420 Fab arm and anti-CD3 scFv (CD3 antibody 1 VH/VL)-Fc fusion peptide
B3: IC-5 (bispecific antibody, human IgG1, kappa)
scFv: B1 scFv with S30N, A49G, D68G, M120L
heavy: B1 heavy
light: B1 light
notes: Comparative: 4420 Fab arm and anti-CD3 scFv (CD3 antibody 2 VH/VL)-Fc fusion peptide
B4: MS-hCD3-IC16 (bispecific antibody, human IgG1, kappa)
scFv: B1 scFv with E1Q, L11V, G16R, M120L, A142T, G163R, A220V, L246V
heavy: B1 heavy
light: B1 light
notes: 4420 Fab arm and anti-CD3 scFv (VH2a/VL5)-Fc fusion peptide, CH2 FES
B5: MS-hCD3-IC17 (bispecific antibody, human IgG1, kappa)
scFv: QVQLVESGGGVVQPGRSLRLSCAASGFTFSTYAMNWVRQAPGKGLEWVARIRSKYNNYATYYADSVKDRFTISRDDSKNTLYLQMNSLRAEDTAVYYCARHGNFGNSYVSWFAYWGQGTLVTVSSGGGGSGGGGSGGGGSQTVVTQEPSLTVSPGGTVTLTCRSSTGAVTTSNYANWVQQKPGQAPRGLIGGTNKRAPGVPARFSGSLLGGKAALTLSGVQPEDEAEYYCALWYSNLWVFGGGTKVEIKGGGGSDKTHTCPPSPAPPVAGPSVFLFPPKPKDTLMISRTPEVTCVVVDVSHEDPEVQFNWYVDGVEVHNAKTKPREEQFNSTFRVVSVLTVVHQDWLNGKEYKCKVSNKGLPAPIEKTISKTKGQPREPQVCTLPPSRDELTKNQVSLSCAVKGFYPSDIAVEWESNGQPENNYKTTPPVLDSDGSFFLVSKLTVDKSRWQQGNVFSCSVMHEALHNHYTQKSLSLSPGK
heavy: EVKLDETGGGLVQPGRPMKLSCVASGFTFSDYWMNWVRQSPEKGLEWVAQIRNKPYNYETYYSDSVKGRFTISRDDSKSSVYLQMNNLRVEDMGIYYCTGSYYGMDYWGQGTSVTVSSASTKGPSVFPLAPSSKSTSGGTAALGCLVKDYFPEPVTVSWNSGALTSGVHTFPAVLQSSGLYSLSSVVTVPSSSLGTQTYICNVNHKPSNTKVDKKVEPKSCDKTHTCPPSPAPPVAGPSVFLFPPKPKDTLMISRTPEVTCVVVDVSHEDPEVQFNWYVDGVEVHNAKTKPREEQFNSTFRVVSVLTVVHQDWLNGKEYKCKVSNKGLPAPIEKTISKTKGQPREPQVYTLPPCRDELTKNQVSLWCLVKGFYPSDIAVEWESNGQPENNYKTTPPVLDSDGSFFLYSKLTVDKSRWQQGNVFSCSVMHEALHNHYTQKSLSLSPGK
light: B1 light
notes: 4420 Fab arm and anti-CD3 scFv (VH2a/VL5)-Fc fusion peptide, CH2 SG2; also called MS-hCD3-17
B6: CT-F3 (bispecific antibody, human IgG1, kappa)
scFv: B1 scFv
heavy: EVQLLESGGGLVQPGGSLRLSCAVSGFTFNSFAMSWVRQAPGKGLEWVSAISGSGGGTYYADSVKGRFTISRDNSKNTLYLQMNSLRAEDTAVYFCAKDKILWFGEPVFDYWGQGTLVTVSSASTKGPSVFPLAPSSKSTSGGTAALGCLVKDYFPEPVTVSWNSGALTSGVHTFPAVLQSSGLYSLSSVVTVPSSSLGTQTYICNVNHKPSNTKVDKKVEPKSCDKTHTCPPCPAPEFEGGPSVFLFPPKPKDTLMISRTPEVTCVVVDVSHEDPEVKFNWYVDGVEVHNAKTKPREEQYNSTYRVVSVLTVLHQDWLNGKEYKCKVSNKALPASIEKTISKAKGQPREPQVYTLPPCRDELTKNQVSLWCLVKGFYPSDIAVEWESNGQPENNYKTTPPVLDSDGSFFLYSKLTVDKSRWQQGNVFSCSVMHEALHNHYTQKSLSLSPGK
light: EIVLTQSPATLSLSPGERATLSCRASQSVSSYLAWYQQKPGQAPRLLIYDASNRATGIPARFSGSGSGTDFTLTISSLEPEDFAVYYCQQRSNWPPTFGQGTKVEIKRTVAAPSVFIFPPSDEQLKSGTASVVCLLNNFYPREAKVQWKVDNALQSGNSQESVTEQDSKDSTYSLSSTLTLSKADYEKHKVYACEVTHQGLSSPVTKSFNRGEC
notes: Comparative: anti-CD38 (Dara) Fab arm and anti-CD3 scFv (CD3 antibody 1 VH, CD3 antibody 2 VL)-Fc fusion peptide
B7: CT-F1 (bispecific antibody, human IgG1, kappa)
scFv: B1 scFv with G163R, V200T, A220V, E247T, I248V, K249L
heavy: B6 heavy
light: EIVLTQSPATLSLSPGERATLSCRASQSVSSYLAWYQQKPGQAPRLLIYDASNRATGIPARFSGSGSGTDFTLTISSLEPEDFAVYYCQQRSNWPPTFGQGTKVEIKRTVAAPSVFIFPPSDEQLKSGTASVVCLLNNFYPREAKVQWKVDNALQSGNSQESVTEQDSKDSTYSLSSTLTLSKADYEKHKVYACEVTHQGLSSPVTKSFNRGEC
notes: Comparative: anti-CD38 (Dara) Fab arm and anti-CD3 scFv (CD3 antibody 1 VH/VL)-Fc fusion peptide
B8: CT-F2 (bispecific antibody, human IgG1, kappa)
scFv: B1 scFv with S30N, A49G, D68G, M120L
heavy: B6 heavy
light: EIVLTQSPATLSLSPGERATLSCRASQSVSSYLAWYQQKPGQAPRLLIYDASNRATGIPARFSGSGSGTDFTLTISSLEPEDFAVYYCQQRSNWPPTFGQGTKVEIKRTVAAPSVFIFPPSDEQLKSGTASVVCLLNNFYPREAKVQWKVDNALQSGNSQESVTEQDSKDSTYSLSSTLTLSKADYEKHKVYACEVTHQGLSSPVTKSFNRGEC
notes: Comparative: anti-CD38 (Dara) Fab arm and anti-CD3 scFv (CD3 antibody 2 VH/VL)-Fc fusion peptide
B9: Y150-F8-5 (bispecific antibody, human IgG1, kappa)
scFv: B1 scFv with E1Q, L11V, G16R, M120L, A142T, G163R, A220V, L246V
heavy: B6 heavy
light: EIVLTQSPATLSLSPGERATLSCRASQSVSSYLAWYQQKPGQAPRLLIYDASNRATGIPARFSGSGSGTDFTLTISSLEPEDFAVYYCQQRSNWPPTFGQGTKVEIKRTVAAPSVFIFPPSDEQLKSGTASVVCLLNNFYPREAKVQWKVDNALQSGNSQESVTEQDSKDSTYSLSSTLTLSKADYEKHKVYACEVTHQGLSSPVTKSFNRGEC
notes: also called Y150-8-5
B10: Y150-F8-6 (bispecific antibody, human IgG1, kappa)
scFv: B1 scFv with E1Q, L11V, G16R, A99V, M120L, A142T, G163R, A220V, L246V
heavy: B6 heavy
light: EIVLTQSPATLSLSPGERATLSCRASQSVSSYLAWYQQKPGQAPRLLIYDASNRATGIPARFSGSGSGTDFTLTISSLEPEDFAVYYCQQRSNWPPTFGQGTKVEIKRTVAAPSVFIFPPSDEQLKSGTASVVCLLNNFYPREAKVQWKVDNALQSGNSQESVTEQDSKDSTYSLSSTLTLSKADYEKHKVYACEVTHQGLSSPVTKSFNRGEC
notes: also called Y150-8-6
B11: Y150-F8-7 (bispecific antibody, human IgG1, kappa, N297A)
scFv: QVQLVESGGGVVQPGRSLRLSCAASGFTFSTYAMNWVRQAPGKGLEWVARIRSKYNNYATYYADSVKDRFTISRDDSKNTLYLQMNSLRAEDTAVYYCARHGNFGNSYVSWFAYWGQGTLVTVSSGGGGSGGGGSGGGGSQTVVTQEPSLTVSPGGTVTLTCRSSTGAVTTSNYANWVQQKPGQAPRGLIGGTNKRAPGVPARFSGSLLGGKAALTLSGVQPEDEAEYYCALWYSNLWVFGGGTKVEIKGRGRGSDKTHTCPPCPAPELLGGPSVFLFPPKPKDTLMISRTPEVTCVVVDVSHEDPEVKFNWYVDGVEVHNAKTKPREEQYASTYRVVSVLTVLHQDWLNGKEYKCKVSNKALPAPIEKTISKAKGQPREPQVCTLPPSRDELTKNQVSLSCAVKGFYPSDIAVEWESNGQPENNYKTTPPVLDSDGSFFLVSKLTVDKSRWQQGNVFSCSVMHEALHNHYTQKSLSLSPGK
heavy: B6 heavy with F239L, E240L, N302A, S336P
light: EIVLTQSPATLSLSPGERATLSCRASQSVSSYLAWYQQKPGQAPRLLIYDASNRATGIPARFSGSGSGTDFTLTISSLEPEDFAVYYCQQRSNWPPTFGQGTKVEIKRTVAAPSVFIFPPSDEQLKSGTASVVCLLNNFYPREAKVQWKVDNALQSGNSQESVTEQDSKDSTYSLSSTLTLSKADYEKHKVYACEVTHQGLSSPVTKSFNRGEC
notes: Anti-CD38 (Dara) Fab arm and anti-CD3 scFv (VH2a/VL5)-Fc fusion peptide, CH2 N297A
B12: Y150-F8-8 (bispecific antibody, human IgG1, kappa)
scFv: QVQLVESGGGVVQPGRSLRLSCAASGFTFSTYAMNWVRQAPGKGLEWVARIRSKYNNYATYYADSVKDRFTISRDDSKNTLYLQMNSLRAEDTAVYYCARHGNFGNSYVSWFAYWGQGTLVTVSSGGGGSGGGGSGGGGSQTVVTQEPSLTVSPGGTVTLTCRSSTGAVTTSNYANWVQQKPGQAPRGLIGGTNKRAPGVPARFSGSLLGGKAALTLSGVQPEDEAEYYCALWYSNLWVFGGGTKVEIKGRGRGSDKTHTCPPSPAPPVAGPSVFLFPPKPKDTLMISRTPEVTCVVVDVSHEDPEVQFNWYVDGVEVHNAKTKPREEQFNSTFRVVSVLTVVHQDWLNGKEYKCKVSNKGLPAPIEKTISKTKGQPREPQVCTLPPSRDELTKNQVSLSCAVKGFYPSDIAVEWESNGQPENNYKTTPPVLDSDGSFFLVSKLTVDKSRWQQGNVFSCSVMHEALHNHYTQKSLSLSPGK
heavy: EVQLLESGGGLVQPGGSLRLSCAVSGFTFNSFAMSWVRQAPGKGLEWVSAISGSGGGTYYADSVKGRFTISRDNSKNTLYLQMNSLRAEDTAVYFCAKDKILWFGEPVFDYWGQGTLVTVSSASTKGPSVFPLAPSSKSTSGGTAALGCLVKDYFPEPVTVSWNSGALTSGVHTFPAVLQSSGLYSLSSVVTVPSSSLGTQTYICNVNHKPSNTKVDKKVEPKSCDKTHTCPPSPAPPVAGPSVFLFPPKPKDTLMISRTPEVTCVVVDVSHEDPEVQFNWYVDGVEVHNAKTKPREEQFNSTFRVVSVLTVVHQDWLNGKEYKCKVSNKGLPAPIEKTISKTKGQPREPQVYTLPPCRDELTKNQVSLWCLVKGFYPSDIAVEWESNGQPENNYKTTPPVLDSDGSFFLYSKLTVDKSRWQQGNVFSCSVMHEALHNHYTQKSLSLSPGK
light: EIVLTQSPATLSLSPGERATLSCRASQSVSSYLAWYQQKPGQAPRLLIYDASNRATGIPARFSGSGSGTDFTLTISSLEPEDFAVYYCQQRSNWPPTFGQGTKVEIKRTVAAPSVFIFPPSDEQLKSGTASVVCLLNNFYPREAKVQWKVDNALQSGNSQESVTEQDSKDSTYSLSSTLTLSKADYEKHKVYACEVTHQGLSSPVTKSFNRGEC
notes: Anti-CD38 (Dara) Fab arm and anti-CD3 scFv (VH2a/VL5)-Fc fusion peptide, CH2 SG2
B13: Y150-F8-1 (bispecific antibody, human IgG1, kappa)
scFv: EVQLVESGGGLVQPKGSLKLSCAASGFTFNTYAMNWVRQAPGKGLEWVARIRSKYNNYATYYADSVKDRFTISRDDSQSILYLQMNNLKTEDTAMYYCVRHGNFGNSYVSWFAYWGQGTLVTVSSGGGGSGGGGSGGGGSQAVVTQESALTTSPGETVTLTCRSSTGAVTTSNYANWVQEKPDHLFTGLIGGTNKRAPGVPARFSGSLIGDKAALTITGAQTEDEAIYFCALWYSNLWVFGGGTKLTVLGDGDGSDKTHTCPPCPAPEFEGGPSVFLFPPKPKDTLMISRTPEVTCVVVDVSHEDPEVKFNWYVDGVEVHNAKTKPREEQYNSTYRVVSVLTVLHQDWLNGKEYKCKVSNKALPASIEKTISKAKGQPREPQVCTLPPSRDELTKNQVSLSCAVKGFYPSDIAVEWESNGQPENNYKTTPPVLDSDGSFFLVSKLTVDKSRWQQGNVFSCSVMHEALHNHYTQKSLSLSPGK
heavy: B6 heavy
light: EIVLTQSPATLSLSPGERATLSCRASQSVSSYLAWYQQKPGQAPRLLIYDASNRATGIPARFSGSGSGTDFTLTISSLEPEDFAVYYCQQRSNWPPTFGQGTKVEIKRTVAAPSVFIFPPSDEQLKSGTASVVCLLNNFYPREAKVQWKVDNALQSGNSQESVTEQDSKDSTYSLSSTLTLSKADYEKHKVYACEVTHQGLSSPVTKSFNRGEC
notes: Comparative: anti-CD38 (Dara) Fab arm and anti-CD3 scFv (SP34)-Fc fusion peptide, CH2 FES
B14: Y150-F8-2 (bispecific antibody, human IgG1, kappa, N297Q)
scFv: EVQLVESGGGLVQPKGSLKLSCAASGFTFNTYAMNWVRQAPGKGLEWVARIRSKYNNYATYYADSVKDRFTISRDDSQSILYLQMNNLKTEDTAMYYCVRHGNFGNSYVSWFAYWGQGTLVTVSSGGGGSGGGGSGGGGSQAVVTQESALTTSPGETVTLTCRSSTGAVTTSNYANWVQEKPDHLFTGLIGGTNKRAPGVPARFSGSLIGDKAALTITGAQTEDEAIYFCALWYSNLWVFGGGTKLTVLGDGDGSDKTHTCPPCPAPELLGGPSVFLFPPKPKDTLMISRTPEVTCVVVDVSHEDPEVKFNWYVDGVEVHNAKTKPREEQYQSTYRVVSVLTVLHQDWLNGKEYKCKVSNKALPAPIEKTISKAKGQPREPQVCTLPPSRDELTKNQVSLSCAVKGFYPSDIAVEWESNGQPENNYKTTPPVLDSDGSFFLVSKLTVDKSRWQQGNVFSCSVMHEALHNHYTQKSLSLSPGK
heavy: B6 heavy with F239L, E240L, N302Q, S336P
light: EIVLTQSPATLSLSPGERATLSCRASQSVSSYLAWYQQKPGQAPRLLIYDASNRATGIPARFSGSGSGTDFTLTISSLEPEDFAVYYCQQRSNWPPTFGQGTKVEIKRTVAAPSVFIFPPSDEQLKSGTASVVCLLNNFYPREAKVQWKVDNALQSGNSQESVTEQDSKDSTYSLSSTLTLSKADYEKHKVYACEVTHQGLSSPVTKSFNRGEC
notes: Comparative: anti-CD38 (Dara) Fab arm and anti-CD3 scFv (SP34)-Fc fusion peptide, CH2 N297Q

target: T1, human CD3 (human, UniProt P07766 23-207); experiment: flow cytometry on human CD3 positive T cells
T1 construct: whole, on cells; Assays used CD3 positive T cells (or CIK cells) from human blood; also called Human CD3ϵ; CD3 on human CD3 positive T cells

Binder | EC50 [nM]
B1 | 118
B2 | 197
B3 | 122
B4 | 170
B5 | 122

target: T2, monkey CD3 (monkey); experiment: flow cytometry on monkey CD3 positive T cells
T2 construct: whole, on cells; also called CD3 on monkey CD3 positive T cells

Binder | EC50 [nM]
B6 | 229
B7 | 347
B8 | 174
B9 | 291
B10 | 29.2
B11 | 142
B12 | 159
B1 | 154
B2 | 296
B3 | 161
B4 | 295
B5 | 222
B13 | 152
B14 | 102
